Measurements taken from US20180022808A1.

Biological target: recombinant Phl p 2 (Biomay AG) (UniProt P43214)
Experiment: flow cytometry scatter plot on 16HBE14o- cells pre-incubated with 1 µg of the conjugate at ratio 1:0.25, then 1 µg Phl p 2, rabbit anti-Phl p 2 (FIG. 3 C)

UniProt P43214, sequence (P43214 27-122 limits assumed): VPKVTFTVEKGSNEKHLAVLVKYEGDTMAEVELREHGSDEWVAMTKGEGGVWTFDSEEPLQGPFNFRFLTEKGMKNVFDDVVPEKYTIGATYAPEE

P2/ICAM1 bi-specific antibody conjugate (streptavidin-conjugated Phl p 2-specific human IgG1 coupled to biotin-labeled ICAM1-specific mouse IgG1) (from UniProt P22629 37-163) (bispecific antibody)
percent of cells with Phl p 2 bound to their cell surface: 50%
